Source: patent US20260234242A1 (HAINAN SIMCERE ZAIMING PHARMACEUTICAL, published 2026)
Blank lines part the entries; values can stand above or below the binder they belong to.

Columns and labels:
[1] = molecular target: T1, human CDH6 with EC3 removed, on HEK293T cells (HEK293T-hCDH6-EC3 deletion) (human, UniProt P55285 54-790); experiment: FACS, HEK293T-hCDH6-EC3 deletion cells
T1 construct: Signal peptide not removed here
T1 sequence: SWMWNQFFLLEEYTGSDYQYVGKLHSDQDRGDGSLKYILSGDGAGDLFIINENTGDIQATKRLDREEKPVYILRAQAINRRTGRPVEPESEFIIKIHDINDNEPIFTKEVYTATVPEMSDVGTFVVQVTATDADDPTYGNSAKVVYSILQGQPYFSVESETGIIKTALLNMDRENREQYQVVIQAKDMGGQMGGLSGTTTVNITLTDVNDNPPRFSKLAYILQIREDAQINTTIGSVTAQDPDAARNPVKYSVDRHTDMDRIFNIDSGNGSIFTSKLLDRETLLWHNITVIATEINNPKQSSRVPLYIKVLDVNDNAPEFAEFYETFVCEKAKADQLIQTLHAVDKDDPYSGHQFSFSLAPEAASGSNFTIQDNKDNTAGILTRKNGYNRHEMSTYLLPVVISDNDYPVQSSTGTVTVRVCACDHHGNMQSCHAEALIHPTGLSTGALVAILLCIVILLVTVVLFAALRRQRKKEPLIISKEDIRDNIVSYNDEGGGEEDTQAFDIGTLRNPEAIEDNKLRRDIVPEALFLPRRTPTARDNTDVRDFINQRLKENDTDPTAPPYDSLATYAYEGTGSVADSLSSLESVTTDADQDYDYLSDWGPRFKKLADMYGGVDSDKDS
Text: To confirm the binding epitope of the CDH6 antibody, the sequences after removal of these 5 regions were constructed into pcDNA3.1 vectors (purchased from Youbio, Cat. No. VT1001), and transfected into HEK293T cells (purchased from Cell Bank of Chinese Academy of Sciences, Cat. No. SCSP-502) to obtain 5 CDH6 truncated cell lines: HEK293T-hCDH6-EC1 deletion, HEK293T-hCDH6-EC2 deletion, HEK293T-hCDH6-EC3 deletion, HEK293T-hCDH6-EC4 deletion, and HEK293T-hCDH6-EC5 deletion.
The binding activity of the CDH6 chimeric antibodies to these 5 cell lines was assayed by FACS.

[2] = molecular target: T2, his-tagged human CDH6 extracellular region protein (hCDH6 ECD-his) (human, UniProt P55285 19-615); experiment: ELISA, coated antigen; ELISA, coated hCDH6 ECD-his; plateau signal
T2 construct: also called Human CDH6-his; hCDH6-his; not shown: his tag
T2 sequence: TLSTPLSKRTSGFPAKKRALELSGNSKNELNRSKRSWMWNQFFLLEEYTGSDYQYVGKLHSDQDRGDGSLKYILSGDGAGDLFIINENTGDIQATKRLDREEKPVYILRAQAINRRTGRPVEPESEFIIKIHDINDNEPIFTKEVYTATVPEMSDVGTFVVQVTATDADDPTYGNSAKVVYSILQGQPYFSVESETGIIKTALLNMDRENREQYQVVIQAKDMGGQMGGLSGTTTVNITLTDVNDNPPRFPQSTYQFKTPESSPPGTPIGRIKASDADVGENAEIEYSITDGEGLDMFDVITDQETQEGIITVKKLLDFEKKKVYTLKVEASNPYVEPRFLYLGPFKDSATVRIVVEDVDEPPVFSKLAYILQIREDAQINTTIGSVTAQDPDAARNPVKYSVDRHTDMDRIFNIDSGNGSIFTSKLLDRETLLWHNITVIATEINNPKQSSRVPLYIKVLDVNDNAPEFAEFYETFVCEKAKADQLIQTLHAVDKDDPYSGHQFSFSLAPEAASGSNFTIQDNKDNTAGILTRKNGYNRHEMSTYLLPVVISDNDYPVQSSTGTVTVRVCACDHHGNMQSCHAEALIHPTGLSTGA
Procedure: (§1) Human CDH6 protein (hCDH6 ECD-his, conventionally synthesized), monkey CDH6 protein (cynoCDH6 ECD-his, conventionally synthesized; the cynoCDH6 ECD sequence was derived from Uniprot #A0A2K5TW62 (19-615)), and murine CDH6 protein (mCDH6 ECD-his, conventionally synthesized; the mCDH6 ECD sequence was derived from Uniprot #P97326 (19-615)) were diluted with PBS to a final concentration of 1 μg/mL, and added to a 96-well ELISA plate at 100 μL/well. The plate was incubated at 4° C. overnight. The next day, the plate was washed 3 times with a plate washing solution (PBS+0.01% (v/v) Tween 20), and a blocking buffer (PBS+0.01% (v/v) Tween 20+2% (w/w) BSA) was added for blocking at room temperature for 2 h. The blocking buffer was discarded, and the plate was washed 3 times. The chimeric antibodies were diluted with 1% BSA+PBS (purchased from Cytiva, Cat. No. SH30264.01) and added to the 96-well plate at 50 μL/well. After incubation at 37° C. for 2 h, the plate was washed 3 times with a plate washing solution. […] The plate was incubated at 37° C. for 1 h and then washed 5 times with a plate washing solution. A TMB substrate (purchased from Seracare, Cat. No. 5120-0077) was added at 50 μL/well and incubated at room temperature for 10 min, then a stop solution (1.0 N HCl) was added at 50 μL/well. OD450 nm values were read using a microplate reader (Biotek). Analysis was performed by the GraphPad Prism software, data were fitted, and EC50 values were calculated. The chimeric antibodies tested all had strong binding to the human CDH6 protein, the monkey CDH6 protein, and the murine CDH6 protein.

[3] = molecular target: T2, his-tagged human CDH6 extracellular …; experiment: ELISA, coated antigen; ELISA, hCDH6 ECD-his coated at 1 µg/mL, antibody in solution
Procedure: as §1

B4: CHI-CDH6-3 (antibody, human IgG1, kappa, V domains shown)
VH: QVQLQQPGAELVKPGASVKLSCKASGYTFTSYWIHWVKQRPGQGLEWIGEINPSNGVTNCNENFKSKATLTVDKSSSTAYMQLSSLTSEDSAVYYCTIPNLLWWYFDVWGAGTTVTVSS
VL: DIQMTQSPASLSVSVGETVTITCRASENIYSNLAWYQQKQGKSPQLLVYEATNLADGVPSRFSGSGSGTQYSLKINSLQSEDFGSYYCQHFWGTLWTFGGGTKLEIKR
notes: also called CH1-CDH6-3; chimeric antibody of murine CDH6-3
Max MFI [1]: 689 MFI | Max OD450 [2]: 2.56 OD450 | EC50 [3]: 0.03 nM

B5: CHI-CDH6-4 (antibody, human IgG1, kappa, V domains shown)
VH: QVQLQQSGPELVKPGASVKISCKASGYAFSNFWMNWVKQRPGKGLEWIGWIYPGDGDTNYNGKFKDKATLTADKSSSTAYIQLSSLTSEDSAVYFCARLYDAWGFFDYWGQGTTLTVSS
VL: QIVLTQSPAIMSASPGQKVTITCSASSSVNYMHWYQQKLGSSPKLWIYDKSKLAPGVPARFSGSGSGTSYSLTISSMEAEDAASYFCHQWSSYPPMTFGGGTKLEIKR
notes: also called CH1-CDH6-4; chimeric antibody of murine CDH6-4
Max MFI [1]: 15100 MFI | Max OD450 [2]: 2.14 OD450 | EC50 [3]: 0.053 nM

B6: CHI-CDH6-5 (antibody, human IgG1, kappa, V domains shown)
VH: QVQLQQSGAELVRPGTSVKMSCKAAEYTFTNYWIGWVKQRPGHGLEWIGDLYPGGDHANYNEKFEGKATLTADTSSSTAYMQLSSLTSEDSAIYYCARGMLTTGFDSWGQGTTLTVSS
VL: DIVMSQSPSSLAVSAGEKVTMSCKSSQSLFNSRTRKNYLAWYQQKPGQSPKLLIYWASTRESGVPDRFTGSGSGTDFTLTISSVQAEDLAVYYCKQSYYLRTFGGGTKLEIKR
notes: also called CH1-CDH6-5; chimeric antibody of murine CDH6-5
Max MFI [1]: 12200 MFI | Max OD450 [2]: 1.79 OD450 | EC50 [3]: 0.043 nM

B8: CHI-CDH6-7 (antibody, human IgG1, kappa, V domains shown)
VH: EVKLVESGGGLVKPGGSLKVSCAASGFTFSDHGMAWVRQAPGKGPEWVAFISNLAYSIYYADTVTGRFTISRENAKNTLYLEMSSLRSEDTAMYYCARVYVKWYFDVWGAGTTVTVSS
VL: DIQMTQSPASLSASVGETVTITCRASENIDSYLAWYQQKQGKSPQLLVFAATLLADGVPSRFSGSGSGTQYSLKINSLQSEDVARYYCQHYYSTPLTFGAGTKLELKR
notes: also called CH1-CDH6-7; chimeric antibody of murine CDH6-7
Max MFI [1]: 9060 MFI | Max OD450 [2]: 1.78 OD450 | EC50 [3]: 0.488 nM

B9: CHI-CDH6-1 (antibody, human IgG1, kappa, V domains shown)
VH: QVQLQQPGAELVRPGSSVKLSCKASGYTFTNYWMHWVKQRPIEGLEWIGDIDPSHSETHYTQKFKDKATLTVDKSSSTAYMQLSSLTSEDSAVYYCARGDLGRFDYWGQGTTLTVSS
VL: DIVLTQSPASLAVSLGQRATISCRASESVSIHGTHLMHWYQQKSGQPPKLLIYAASNLESGVPARFSGSGSETDFTFNIHPVEEEDAATYFCQQSFEDPWTFGGGTKLEIKR
notes: also called CHI-hCDH6-1; CH1-CDH6-1
Max MFI [1]: 18000 MFI

Continued, in another order:

Max MFI [1]: 755 MFI
B1: CHI-CDH6-14 (antibody, human IgG1, kappa, V domains shown)
VH: QIQLQQSGPELVKPGTSVKISCKASGYTFTDNYINWVRQRPGQGLEWIGWIYPGTGNSYYNEKFKGKATLTVDTSSSTAYMQFSSLTSEDSAVYLCASSYGDSFDYWGQGTTLTVSS
VL: DIQMTQTTSSLSASLGNRVTISCRASQDIRNYLNWYQQKPDGTFKLLISYTSRLHSGVPSRFSGSGSGTDYSLTVSNLEPEDIATYYCQQYSQLPWTFGGGSRLEIKR
notes: also called CHI-hCDH6-14; CH1-CDH6-14

Max OD450 [2]: 1.89 OD450 | EC50 [3]: 0.168 nM
B2: DS-H01L02 (antibody, human IgG1, kappa, V domains shown)
VH: EVQLVQSGAEVKKPGASVKVSCKASGYTFTRNFMHWVRQAPGQGLEWMGWIYPGDGETEYAQKFQGRVTITADTSTSTAYMELSSLRSEDTAVYYCARGVYGGFAGGYFDFWGQGTLVTVSS
VL: DIQMTQSPSSLSASVGDRVTITCKASQNIYKNLAWYQQKPGKAPKLLIYDANTLQTGVPSRFSGSGSGSDFTLTISSLQPEDFATYFCQQYYSGWAFGQGTKVEIKR
notes: Positive control, variable regions from WO2018212136A1; also called positive control anti-human CDH6 antibody
binding result [1]: no binding (tested: MFI ~1.5 times that of hIgG1 (65))

Max MFI [1]: 16300 MFI
B3: NOV0712 (antibody, human IgG1, kappa, V domains shown)
VH: QVQLLESGGGLVQPGGSLRLSCAASGFTFSSHGMHWVRQAPGKGLEWVSVISGSGSNTGYADSVKGRFTISRDNSKNTLYLQMNSLRAEDTAVYYCARQWGSYAFDSWGQGTLVTVSS
VL: DIQMTQSPSSLSASVGDRVTITCRASQSISSYLNWYQQKPGKAPKLLIYAVSTLQSGVPSRFSGSGSGTDFTLTISSLQPEDFATYYCQQSGTFPPTTFGQGTKVEIKR
notes: as for B2

Max MFI [1]: 70 MFI | Max OD450 [2]: 1.82 OD450 | EC50 [3]: 0.105 nM
B7: CHI-CDH6-12 (antibody, human IgG1, kappa, V domains shown)
VH: EVNLVESGGGLVQPGDSLTLSCSASGFTFTDYYMSWVRQFPGKALEWLALIRNKANSYTTEYSASVKGRFTISRDNSQSILYLQMNALRAEDSATYYCARDSYYSHDGFAYWGQGTLVTVSA
VL: DIVLTQSPASLAVSLGQRATISCRASKSVSTSSYTYMHWYQQKPGQPPKLLIKFASYLESGVPARFSGSGSGTDFTLNIHPVEEEDAATYYCQHSREFPFTFGTGTKLEIKR
notes: also called CH1-CDH6-12; chimeric antibody of murine CDH6-12
